In this assay the target is T1, full length human p53 fused in frame with the B42D activation domain (pJG4-5) (human, UniProt P04637 1-393).
T1 construct: mature; Yeast two hybrid prey
As to the kind of experiment: yeast two hybrid, X-gal colony colour. An excerpt:
To determine whether protein-protein interactions are involved, and which part of Msx1 are involved if any, in the stabilization of p53 leading to apoptosis of cells by Msx1, yeast two hybrid assays were used as previously described (Gyuris et al., Cell 75: 791-803, 1993; Part et al., ibid).
Briefly, to this end, four Msx1 constructs (FIG. 3A top) were made as described in Example 1. DNA fragments encoding full length human HPV-E6 and p53 proteins were isolated by PCR from the cDNA library derived from HeLa cells (Clontech) and cloned into pJG4-5 at unique EcoRI and XhoI sites for in-frame fusion of each cDNA with B42D activation domain. The truncated constructs of Msx1 as shown in FIG. 3A were obtained by PCR using specific set of primers designed for each deletion product and pCB6+/Msx1 as a template. Each amplified Msx1 fragment was then inserted into a pGlida vector (Clontech) using BamHI and XhoI sites to express it as a fusion protein with LexA. Each pGlida and pJG4-5 fusion construct prepared was then introduced into the testing yeast strain EGY48. […] The binding activity between HPV-E6 and Msx1 was also determined quantitatively by the relative expression level of β-galactosidase as described (Rho, S B et al., FEBS Lett 557: 57-63, 2004; Rho, S B et al., PNAS USA 93:10128-33,1996).

B1: Msx1 construct lacking homeodomain (1-165) expressed as a fusion protein with LexA (other)
chain: MTSLPLGVKVEDSAFGKPAGGGAGQAPSAAAATAAAMGADEEGAKPKVSPSLLPFSVEALMADHRKPGAKESALAPSEGVQAAGGSAQPLGVPPGSLGAPDAPSSPRPLGHFSVGGLLKLPEDALVKAESPEKPERTPWMQSPRFSPPPARRLSPPACTLRKHKT
notes: Yeast two hybrid bait; not shown: LexA as encoded by the pGlida vector (Clontech)
As to B1, the binding result was “no binding”.

For the origin of these results see US20090088402A1 (SUNGKYUNKWAN UNIVERSITY FOUNDATION FOR CORPORATE …, published 2009).
